Measurements as given in patent US20250011363A1, “OPTIMIZED SHORTENED PEPTIDE THAT BINDS TO ACETYLCHOLINE RECEPTOR, AND USE THEREOF” (SKINMED CO., LTD., priority 2021, published 2025).

Each binder was assayed against acetylcholine receptor (assay: SPR, peptide at 10 uM on acetylcholine receptor).

| Binder | Binding affinity (RU) |
| --- | --- |
| KPNVK [5mer-682] | 31 |
| KEWEK [5mer-691] | 16 |
| KNAHK [5mer-984] | 11 |
| KFMHK [5mer-982] | 12 |
| RFSDK [5mer-689] | 20 |
| RFTER [5mer-680] | 21 |
| RCEHR [5mer-696] | 11 |
| RDPKR [5mer-985] | 17 |
| RHMMR [5mer-974] | 26 |
| RPEFR [5mer-991] | 24 |
| RAEIK [5mer-690] | 12 |
| RYWAR [5mer-973] | 12 |
| RNDKK [5mer-992] | 15 |
| KDTMR [5mer-681] | 18 |
| RISPR [5mer-673] | 14 |
| RKPHR [5mer-980] | 33 |
| RCEMR [5mer-677] | 15 |
| KEKFR [5mer-993] | 27 |
| RNDIK [5mer-685] | 21 |
| KYPDK [5mer-683] | 32 |
| RPHFK [5mer-688] | 31 |
| RHHMK [5mer-979] | 23 |

Continued, values first:

| Binding affinity (RU) | Binder |
| --- | --- |
| 30 | RYDHK [5mer-978] |
| 15 | RDHWK [5mer-692] |
| 32 | RMTKK [5mer-996] |
| 33 | KYMNR [5mer-970] |
| 16 | RETNR [5mer-976] |
| 21 | KMNAK [5mer-671] |
| 14 | KYAKR [5mer-972] |
| 26 | KAWVR [5mer-994] |
| 12 | KMTGK [5mer-971] |
| 12 | KFDWK [5mer-698] |
| 21 | KKTVK [5mer-679] |
| 17 | RPSKK [5mer-693] |
| 26 | KKPDR [5mer-695] |
| 24 | KNNAR [5mer-694] |
| 23 | RTTGR [5mer-983] |
| 18 | RTMFR [5mer-676] |
| 12 | RPMDK [5mer-986] |
| 18 | KFTDK [5mer-995] |
| 27 | KCAER [5mer-684] |

| Binding affinity (RU) | Binder |
| --- | --- |
| 27 | RNTVR [5mer-969] |
| 25 | KASKK [5mer-697] |
| 22 | KETHR [5mer-674] |
| 18 | RFAHK [5mer-975] |
| 23 | KPCVK [5mer-670] |
| 12 | KEEPK [5mer-990] |
| 16 | KNMIR [5mer-977] |
| 31 | RKPGR [5mer-675] |
| 12 | KHAPK [5mer-672] |
| 30 | RYPHR [5mer-997] |
| 22 | RAHWR [5mer-987] |
| 31 | RCTAR [5mer-989] |
| 18 | RFNIR [5mer-686] |
| 18 | RCTAK [5mer-998] |
| 22 | RMEIR [5mer-687] |
| 17 | RCKWR [5mer-988] |
| 23 | KYMGR [5mer-678] |
| 33 | KNDKK [5mer-981] |

The binders below were run against acetylcholine receptor (assay: SPR, peptide at 10 uM, acetylcholine receptor immobilized on chip).

| Binder | Binding affinity (RU) |
| --- | --- |
| KDSVR [5mer-907] | 18 |
| KCTNR [5mer-901] | 30 |
| REDPK [5mer-902] | 23 |
| RPCFR [5mer-910] | 17 |
| RKTMK [5mer-609] | 32 |
| RECFK [5mer-605] | 22 |
| RKHAK [5mer-906] | 31 |
| RINVK [5mer-909] | 33 |
| RIHWK [5mer-606] | 25 |
| RDSER [5mer-608] | 20 |
| RIEER [5mer-607] | 25 |

The remaining lines, values ahead:

| Binding affinity (RU) | Binder |
| --- | --- |
| 13 | RKEGK [5mer-604] |
| 16 | KCDDK [5mer-610] |
| 30 | RPSPR [5mer-905] |
| 25 | RCHFK [5mer-908] |
| 12 | KMSVR [5mer-602] |
| 13 | RFCFK [5mer-601] |
| 23 | KPDPK [5mer-904] |
| 21 | RHHKR [5mer-903] |
| 27 | RKEPK [5mer-603] |
